Data: paper PMC5775257

Tested on: Roquin-1 (aa 2-441);NUFIP2 (aa 255-411) (mouse;human)
Experiment: EMSA
Details: 10 mM HEPES pH 7.5, 150 mM NaCl, 2 mM MgCl2, 4% glycerol, tRNA 30 ug/mL, 5 nM labeled RNA, 30 min at 25 °C; native 4% TBE PAGE

Substance	Kd
ICOS 3'-UTR tandem cis-element (nt 2183-2271)	11.3 nM
Ox40 3'-UTR tandem element (nt 1064-1126)	10.7 nM
